Columns and labels:
RNF43 (Homo sapiens) [1] = molecular target: RNF43 (Homo sapiens) (UniProt Q68DV7); experiment: ITC; settings: cited from earlier work
RNF43 (Homo sapiens) [2] = molecular target: RNF43 (Homo sapiens) (UniProt Q68DV7); experiment: ITC; settings: cited from earlier work; remark: listed apart in the source
[3] = molecular target: T1, ZNRF3 ectodomain with C-terminal biotin acceptor peptide (C-BAP) tag, biotinylated in vivo (mouse, UniProt Q5SSZ7 53-216, biotin on the biotin acceptor peptide tag (in-vivo biotinylation by BirA)); experiment: SPR; IBIS MX96; biotinylated ZNRF3 immobilised on a G-streptavidin sensor chip at different ligand densities; analytes flowed in 25 mM HEPES pH 8.0, 150 mM NaCl, 25 °C; equilibrium dose-response, global fit to a 1:1 binding model; settings: both partners purified
T1 construct: ZNRF3 ectodomain; also called Biotinylated ZNRF3; source: HEK293-E cells, co-expressed with biotin ligase (BirA); not shown: biotin acceptor peptide (BAP), C-terminal, kept
T1 sequence (looked up): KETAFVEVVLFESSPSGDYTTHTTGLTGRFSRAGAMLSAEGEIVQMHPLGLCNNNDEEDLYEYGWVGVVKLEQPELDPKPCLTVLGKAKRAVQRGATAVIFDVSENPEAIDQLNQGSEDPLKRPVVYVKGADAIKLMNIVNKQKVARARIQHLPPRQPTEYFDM

RNF43 (Homo sapiens), sequence (Q68DV7 24-197): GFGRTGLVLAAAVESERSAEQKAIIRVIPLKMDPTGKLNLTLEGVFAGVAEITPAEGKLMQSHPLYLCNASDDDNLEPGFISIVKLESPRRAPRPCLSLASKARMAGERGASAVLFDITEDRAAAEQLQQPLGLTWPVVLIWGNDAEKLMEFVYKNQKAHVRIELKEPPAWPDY

Molecule: RSPO1 (from UniProt Q2MKA7)
- Kd (RNF43 (Homo sapiens) [1]): 8500 nM
- Kd (RNF43 (Homo sapiens) [2]): 750 nM

B1: R-spondin 1 (RSPO1) furin-like domains Fu1 and Fu2 (domain or fragment)
chain: RISAEGSQACAKGCELCSEVNGCLKCSPKLFILLERNDIRQVGVCLPSCPPGYFDARNPDMNKCIKCKIEHCEACFSHNFCTKCKEGLYLHKGRCYPACPEGSSAANGTMECSSPA
notes: R-spondin 1, fragment consisting of the Fu1 and Fu2 domains; source: HEK 293E (EBNA) cells, purified (Ni-NTA, gel filtration); as described previously [18]
- Kd [3]: 1900 nM

From article PMC3861454, “Structures of Wnt-Antagonist ZNRF3 and Its Complex with R-Spondin 1 and Implications for Signaling” (PLoS ONE, 2013)
